Reference: PMC3513585

Target: denatured human type I collagen (gelatin) (human) (UniProt P02452)
Test: ELISA

Chain of denatured human type I collagen (gelatin) (human) (P02452 162-1218, chain 1 of 2): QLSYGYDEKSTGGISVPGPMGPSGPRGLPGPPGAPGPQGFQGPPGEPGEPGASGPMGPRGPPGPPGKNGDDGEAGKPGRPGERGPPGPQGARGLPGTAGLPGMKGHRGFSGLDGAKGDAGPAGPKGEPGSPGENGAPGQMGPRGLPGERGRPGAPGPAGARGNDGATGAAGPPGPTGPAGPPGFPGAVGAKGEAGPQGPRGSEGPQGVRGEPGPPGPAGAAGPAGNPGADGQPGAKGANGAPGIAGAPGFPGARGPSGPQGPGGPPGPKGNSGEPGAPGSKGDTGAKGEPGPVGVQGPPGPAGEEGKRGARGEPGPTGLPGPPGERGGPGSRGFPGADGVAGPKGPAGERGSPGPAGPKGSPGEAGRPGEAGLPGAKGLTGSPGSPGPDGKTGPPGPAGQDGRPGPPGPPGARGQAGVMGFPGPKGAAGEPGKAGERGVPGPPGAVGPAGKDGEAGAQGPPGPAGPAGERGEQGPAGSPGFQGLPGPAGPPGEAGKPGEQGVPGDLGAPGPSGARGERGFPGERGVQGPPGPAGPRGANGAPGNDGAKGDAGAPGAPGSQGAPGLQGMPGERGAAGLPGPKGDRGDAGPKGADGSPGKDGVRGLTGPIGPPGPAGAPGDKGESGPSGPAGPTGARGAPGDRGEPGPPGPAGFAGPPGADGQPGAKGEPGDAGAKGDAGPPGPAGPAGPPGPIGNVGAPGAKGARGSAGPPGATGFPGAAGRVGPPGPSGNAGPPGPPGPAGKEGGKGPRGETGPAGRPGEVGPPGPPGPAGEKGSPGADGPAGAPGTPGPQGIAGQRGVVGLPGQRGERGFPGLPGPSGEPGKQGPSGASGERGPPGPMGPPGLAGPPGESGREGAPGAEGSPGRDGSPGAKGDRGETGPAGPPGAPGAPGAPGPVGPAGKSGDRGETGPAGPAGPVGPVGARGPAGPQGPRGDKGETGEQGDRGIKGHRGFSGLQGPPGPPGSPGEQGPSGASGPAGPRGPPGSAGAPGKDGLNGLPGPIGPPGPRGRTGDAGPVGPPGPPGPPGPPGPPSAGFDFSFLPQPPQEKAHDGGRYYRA
Chain of denatured human type I collagen (gelatin) (human) (P08123 80-1119, chain 2 of 2, further chain): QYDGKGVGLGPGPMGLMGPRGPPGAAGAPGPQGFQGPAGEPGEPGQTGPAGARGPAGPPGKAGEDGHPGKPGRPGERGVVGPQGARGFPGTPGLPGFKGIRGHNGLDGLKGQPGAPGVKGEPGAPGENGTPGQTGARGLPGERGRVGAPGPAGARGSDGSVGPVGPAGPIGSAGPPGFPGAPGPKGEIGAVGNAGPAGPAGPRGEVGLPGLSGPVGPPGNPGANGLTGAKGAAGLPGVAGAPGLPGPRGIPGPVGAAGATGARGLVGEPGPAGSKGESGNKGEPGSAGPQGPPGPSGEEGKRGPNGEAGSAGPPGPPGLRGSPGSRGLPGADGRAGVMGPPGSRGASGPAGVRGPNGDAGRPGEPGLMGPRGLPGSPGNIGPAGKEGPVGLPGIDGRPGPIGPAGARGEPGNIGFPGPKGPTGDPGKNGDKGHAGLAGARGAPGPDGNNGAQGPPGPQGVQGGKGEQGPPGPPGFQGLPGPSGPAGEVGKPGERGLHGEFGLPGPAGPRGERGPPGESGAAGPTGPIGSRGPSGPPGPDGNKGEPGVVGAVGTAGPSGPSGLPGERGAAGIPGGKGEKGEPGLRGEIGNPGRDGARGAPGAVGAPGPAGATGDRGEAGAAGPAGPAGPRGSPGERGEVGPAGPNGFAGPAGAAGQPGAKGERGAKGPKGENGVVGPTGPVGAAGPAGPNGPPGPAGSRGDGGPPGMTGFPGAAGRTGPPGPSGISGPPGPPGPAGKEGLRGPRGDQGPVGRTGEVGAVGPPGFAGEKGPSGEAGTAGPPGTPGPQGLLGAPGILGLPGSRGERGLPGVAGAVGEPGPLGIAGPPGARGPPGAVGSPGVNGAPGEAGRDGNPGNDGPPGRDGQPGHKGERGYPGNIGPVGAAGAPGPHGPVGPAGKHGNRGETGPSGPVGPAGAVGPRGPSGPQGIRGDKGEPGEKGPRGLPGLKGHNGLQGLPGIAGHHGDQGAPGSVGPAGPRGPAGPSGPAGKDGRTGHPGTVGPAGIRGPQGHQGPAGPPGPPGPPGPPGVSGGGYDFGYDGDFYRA

Kd [nM] | Substance
5.84 | MMP-2 R252A/F297A (variant of MMP-2Δpro, CBD modules 1+2) (from UniProt P08253 30-660) (enzyme)
3.56 | MMP-2 R368A (variant of MMP-2Δpro, CBD module 3) (from UniProt P08253 30-660) (enzyme)
2.8 | MMP-2 F297A (variant of MMP-2Δpro, CBD module 2) (from UniProt P08253 30-660) (enzyme)
1.03 | MMP-2Δpro (constitutively active matrix metalloproteinase-2 without the prodomain; wild-type) (from UniProt P08253 30-660) (enzyme)
37.6 | MMP-2 F297A/R368A (variant of MMP-2Δpro, CBD modules 2+3) (from UniProt P08253 30-660) (enzyme)
2.58 | MMP-2 R252A (variant of MMP-2Δpro, CBD module 1) (from UniProt P08253 30-660) (enzyme)
7.49 | MMP-2 R252A/R368A (variant of MMP-2Δpro, CBD modules 1+3) (from UniProt P08253 30-660) (enzyme)
